Measurements from US10941182 (Amgen, dated 2021).
Starred links: 1 amine or outer side, 2 acyl side, 3 side chain; linkers in the order of their positions; H or OH if unused. Non-standard residues stand in square brackets, D forms with d. Primed or numbered codes have the meaning given here. *: point of attachment. NPipG = 2-(piperidin-4-ylamino)acetic acid, O=C(CN(C1CCN([*:3])CC1)[*:1])[*:2]; AC4Abu = α-carboxy-4-aminobutyric acid, O=C(C(CCN[*:1])C(=O)[*:3])[*:2]; Oic = O=C(O)[C@@H]1C[C@@H]2CCCC[C@@H]2N1; Phe(4-Cl) = N[C@@H](Cc1ccc(Cl)cc1)C(=O)O; Phe(4-F) = N[C@@H](Cc1ccc(F)cc1)C(=O)O; γGlu = O=C(O)[C@H](CCC(=O)[*:2])N[*:1]; d(β3hF) = N[C@@H](CC(=O)O)Cc1ccccc1; Igl = N[C@H](C(=O)O)C1Cc2ccccc2C1; NMeR = CN[C@@H](CCCNC(=N)N)C(=O)O; Palmitoyl = CCCCCCCCCCCCCCCC(=O)*; 3Pal = N[C@@H](Cc1cccnc1)C(=O)O; Cha = N[C@@H](CC1CCCCC1)C(=O)O; αMeL = CC(C)C[C@](C)(N)C(=O)O; αMeOrn = C[C@](N)(CCCN)C(=O)O; β3hP = O=C(O)C[C@@H]1CCCN1; Nle = CCCC[C@H](N)C(=O)O; Orn = NCCC[C@H](N)C(=O)O; Dab = NCC[C@H](N)C(=O)O; Pip′ = not defined here; Dap = NC[C@H](N)C(=O)O; AEEA = NCCOCCOCC(=O)O; Aib = CC(C)(N)C(=O)O; NPrGly = CCCNCC(=O)O; BLeu = β-leucine

T1: human APJ receptor (human, UniProt P35414 1-380)
T1 sequence (looked up): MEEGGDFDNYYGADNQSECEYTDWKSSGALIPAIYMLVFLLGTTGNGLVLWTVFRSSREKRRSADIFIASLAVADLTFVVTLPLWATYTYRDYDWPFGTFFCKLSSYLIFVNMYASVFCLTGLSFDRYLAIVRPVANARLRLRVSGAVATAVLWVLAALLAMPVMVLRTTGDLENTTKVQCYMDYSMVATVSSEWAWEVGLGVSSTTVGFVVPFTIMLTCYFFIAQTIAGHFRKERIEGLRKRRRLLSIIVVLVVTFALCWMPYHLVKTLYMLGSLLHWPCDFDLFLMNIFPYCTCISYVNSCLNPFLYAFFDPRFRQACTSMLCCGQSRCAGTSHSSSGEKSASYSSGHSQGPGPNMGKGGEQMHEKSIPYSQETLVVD

T2: rat APJ receptor (rat, UniProt Q9JHG3 1-377)
T2 sequence (looked up): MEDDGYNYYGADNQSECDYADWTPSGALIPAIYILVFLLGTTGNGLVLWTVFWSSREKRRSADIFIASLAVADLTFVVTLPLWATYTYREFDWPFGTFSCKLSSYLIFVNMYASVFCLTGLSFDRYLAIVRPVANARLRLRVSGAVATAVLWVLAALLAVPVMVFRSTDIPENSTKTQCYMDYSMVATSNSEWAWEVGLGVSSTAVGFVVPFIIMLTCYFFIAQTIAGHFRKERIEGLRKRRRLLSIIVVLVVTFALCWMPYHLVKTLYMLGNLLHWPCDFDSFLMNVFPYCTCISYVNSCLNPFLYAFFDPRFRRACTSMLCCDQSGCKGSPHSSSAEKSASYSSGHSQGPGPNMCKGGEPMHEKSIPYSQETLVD


Key:
human APJ receptor = target: T1, human APJ receptor; experiment: cell-based or functional assay
rat APJ receptor = target: T2, rat APJ receptor; experiment: cell-based or functional assay

EC50 Human APJ Receptor (human APJ receptor) | EC50 Rat APJ Receptor (rat APJ receptor) | Binder
11.8 nM | 19.7 nM | Palmitoyl-[γGlu][AEEA][AEEA][dQ]RP[NMeR][Cha]SH[Phe(4-F)]G[Oic][Nle][β3hP][d(β3hF)]-OH (SMILES CCCCCCCCCCCCCCCC(=O)N[C@@H](CCC(=O)NCCOCCOCC(=O)NCCOCCOCC(=O)N[C@H](CCC(N)=O)C(=O)N[C@@H](CCCNC(=N)N)C(=O)N1CCC[C@H]1C(=O)N(C)[C@@H](CCCNC(=N)N)C(=O)N[C@@H](CC1CCCCC1)C(=O)N[C@@H](CO)C(=O)N[C@@H](Cc1c[nH]cn1)C(=O)N[C@@H](Cc1ccc(F)cc1)C(=O)NCC(=O)N1[C@H](C(=O)N[C@@H](CCCC)C(=O)N2CCC[C@H]2CC(=O)N[C@@H](CC(=O)O)Cc2ccccc2)C[C@@H]2CCCC[C@@H]21)C(=O)O) [SEQ ID NO: 622]
26.2 nM | 125 nM | Palmitoyl-[γGlu][AEEA][AEEA][dQ]RP[NMeR][Cha]SH[αMeOrn]G[Oic][Nle][β3hP][d(β3hF)]-OH (SMILES CCCCCCCCCCCCCCCC(=O)N[C@@H](CCC(=O)NCCOCCOCC(=O)NCCOCCOCC(=O)N[C@H](CCC(N)=O)C(=O)N[C@@H](CCCNC(=N)N)C(=O)N1CCC[C@H]1C(=O)N(C)[C@@H](CCCNC(=N)N)C(=O)N[C@@H](CC1CCCCC1)C(=O)N[C@@H](CO)C(=O)N[C@@H](Cc1c[nH]cn1)C(=O)N[C@@](C)(CCCN)C(=O)NCC(=O)N1[C@H](C(=O)N[C@@H](CCCC)C(=O)N2CCC[C@H]2CC(=O)N[C@@H](CC(=O)O)Cc2ccccc2)C[C@@H]2CCCC[C@@H]21)C(=O)O) [SEQ ID NO: 619]
0.463 nM | 3.79 nM | Palmitoyl-[AC4Abu][AEEA][AEEA][dQ]RP[NMeR][Cha][NPrGly]HKG[Pip′][Nle][Aib][Phe(4-Cl)]-OH [SEQ ID NO: 643]
9.42 nM | 23.2 nM | Palmitoyl-[γGlu][AEEA][AEEA][dQ]RP[NMeR][Cha][BLeu]HKG[Oic][Nle][β3hP][d(β3hF)]-OH [SEQ ID NO: 615]
1.4 nM | 4.2 nM | Palmitoyl-[AC4Abu][AEEA][AEEA][dQ]RP[NMeR][Cha]S[NPrGly]KG[Pip′][Nle][Aib][Phe(4-Cl)]-OH [SEQ ID NO: 644]
0.164 nM | 2.21 nM | Palmitoyl-[γGlu][AEEA][AEEA][dQ]RP[NMeR][αMeL]SH[Orn]G[Oic][Nle][β3hP][Phe(4-Cl)]-OH (SMILES CCCCCCCCCCCCCCCC(=O)N[C@@H](CCC(=O)NCCOCCOCC(=O)NCCOCCOCC(=O)N[C@H](CCC(N)=O)C(=O)N[C@@H](CCCNC(=N)N)C(=O)N1CCC[C@H]1C(=O)N(C)[C@@H](CCCNC(=N)N)C(=O)N[C@@](C)(CC(C)C)C(=O)N[C@@H](CO)C(=O)N[C@@H](Cc1c[nH]cn1)C(=O)N[C@@H](CCCN)C(=O)NCC(=O)N1[C@H](C(=O)N[C@@H](CCCC)C(=O)N2CCC[C@H]2CC(=O)N[C@@H](Cc2ccc(Cl)cc2)C(=O)O)C[C@@H]2CCCC[C@@H]21)C(=O)O) [SEQ ID NO: 634]
7.42 nM | 14.9 nM | Palmitoyl-[γGlu][AEEA][AEEA][dQ]RP[NMeR][Cha]SH[3Pal]G[Oic][Nle][β3hP][d(β3hF)]-OH (SMILES CCCCCCCCCCCCCCCC(=O)N[C@@H](CCC(=O)NCCOCCOCC(=O)NCCOCCOCC(=O)N[C@H](CCC(N)=O)C(=O)N[C@@H](CCCNC(=N)N)C(=O)N1CCC[C@H]1C(=O)N(C)[C@@H](CCCNC(=N)N)C(=O)N[C@@H](CC1CCCCC1)C(=O)N[C@@H](CO)C(=O)N[C@@H](Cc1c[nH]cn1)C(=O)N[C@@H](Cc1cccnc1)C(=O)NCC(=O)N1[C@H](C(=O)N[C@@H](CCCC)C(=O)N2CCC[C@H]2CC(=O)N[C@@H](CC(=O)O)Cc2ccccc2)C[C@@H]2CCCC[C@@H]21)C(=O)O) [SEQ ID NO: 620]
10.7 nM | > 4170 nM | Palmitoyl-[γGlu][AEEA][AEEA][dQ]RP[NMeR][Cha]SH[NPipG]G[Oic][Nle][β3hP][d(β3hF)]-OH (SMILES CCCCCCCCCCCCCCCC(=O)N[C@@H](CCC(=O)NCCOCCOCC(=O)NCCOCCOCC(=O)N[C@H](CCC(N)=O)C(=O)N[C@@H](CCCNC(=N)N)C(=O)N1CCC[C@H]1C(=O)N(C)[C@@H](CCCNC(=N)N)C(=O)N[C@@H](CC1CCCCC1)C(=O)N[C@@H](CO)C(=O)N[C@@H](Cc1c[nH]cn1)C(=O)N(CC(=O)NCC(=O)N1[C@H](C(=O)N[C@@H](CCCC)C(=O)N2CCC[C@H]2CC(=O)N[C@@H](CC(=O)O)Cc2ccccc2)C[C@@H]2CCCC[C@@H]21)C1CCNCC1)C(=O)O) [SEQ ID NO: 633]
2.75 nM | 17.2 nM | Palmitoyl-[γGlu][AEEA][AEEA][dQ]RP[NMeR][Cha]S[Dap]KG[Oic][Nle][β3hP][d(β3hF)]-OH (SMILES CCCCCCCCCCCCCCCC(=O)N[C@@H](CCC(=O)NCCOCCOCC(=O)NCCOCCOCC(=O)N[C@H](CCC(N)=O)C(=O)N[C@@H](CCCNC(=N)N)C(=O)N1CCC[C@H]1C(=O)N(C)[C@@H](CCCNC(=N)N)C(=O)N[C@@H](CC1CCCCC1)C(=O)N[C@@H](CO)C(=O)N[C@@H](CN)C(=O)N[C@@H](CCCCN)C(=O)NCC(=O)N1[C@H](C(=O)N[C@@H](CCCC)C(=O)N2CCC[C@H]2CC(=O)N[C@@H](CC(=O)O)Cc2ccccc2)C[C@@H]2CCCC[C@@H]21)C(=O)O) [SEQ ID NO: 616]
16.4 nM | 26.1 nM | Palmitoyl-[γGlu][AEEA][AEEA][dQ]RP[NMeR][Cha]SH[Phe(4-Cl)]G[Oic][Nle][β3hP][d(β3hF)]-OH (SMILES CCCCCCCCCCCCCCCC(=O)N[C@@H](CCC(=O)NCCOCCOCC(=O)NCCOCCOCC(=O)N[C@H](CCC(N)=O)C(=O)N[C@@H](CCCNC(=N)N)C(=O)N1CCC[C@H]1C(=O)N(C)[C@@H](CCCNC(=N)N)C(=O)N[C@@H](CC1CCCCC1)C(=O)N[C@@H](CO)C(=O)N[C@@H](Cc1c[nH]cn1)C(=O)N[C@@H](Cc1ccc(Cl)cc1)C(=O)NCC(=O)N1[C@H](C(=O)N[C@@H](CCCC)C(=O)N2CCC[C@H]2CC(=O)N[C@@H](CC(=O)O)Cc2ccccc2)C[C@@H]2CCCC[C@@H]21)C(=O)O) [SEQ ID NO: 621]
1.43 nM | 9.16 nM | Palmitoyl-[γGlu][AEEA][AEEA][dQ]RP[NMeR][Cha]SH[Dab]G[Oic][Nle][β3hP][d(β3hF)]-OH (SMILES CCCCCCCCCCCCCCCC(=O)N[C@@H](CCC(=O)NCCOCCOCC(=O)NCCOCCOCC(=O)N[C@H](CCC(N)=O)C(=O)N[C@@H](CCCNC(=N)N)C(=O)N1CCC[C@H]1C(=O)N(C)[C@@H](CCCNC(=N)N)C(=O)N[C@@H](CC1CCCCC1)C(=O)N[C@@H](CO)C(=O)N[C@@H](Cc1c[nH]cn1)C(=O)N[C@@H](CCN)C(=O)NCC(=O)N1[C@H](C(=O)N[C@@H](CCCC)C(=O)N2CCC[C@H]2CC(=O)N[C@@H](CC(=O)O)Cc2ccccc2)C[C@@H]2CCCC[C@@H]21)C(=O)O) [SEQ ID NO: 623]
11.1 nM | 20 nM | Palmitoyl-[γGlu][AEEA][AEEA][dQ]RP[NMeR][Cha]SH[Igl]G[Oic][Nle][β3hP][d(β3hF)]-OH (SMILES CCCCCCCCCCCCCCCC(=O)N[C@@H](CCC(=O)NCCOCCOCC(=O)NCCOCCOCC(=O)N[C@H](CCC(N)=O)C(=O)N[C@@H](CCCNC(=N)N)C(=O)N1CCC[C@H]1C(=O)N(C)[C@@H](CCCNC(=N)N)C(=O)N[C@@H](CC1CCCCC1)C(=O)N[C@@H](CO)C(=O)N[C@@H](Cc1c[nH]cn1)C(=O)N[C@H](C(=O)NCC(=O)N1[C@H](C(=O)N[C@@H](CCCC)C(=O)N2CCC[C@H]2CC(=O)N[C@@H](CC(=O)O)Cc2ccccc2)C[C@@H]2CCCC[C@@H]21)C1Cc2ccccc2C1)C(=O)O) [SEQ ID NO: 625]
21.1 nM | 99.7 nM | Palmitoyl-[γGlu][AEEA][AEEA][dQ]RP[NMeR][Cha]SH[Dap]G[Oic][Nle][β3hP][d(β3hF)]-OH (SMILES CCCCCCCCCCCCCCCC(=O)N[C@@H](CCC(=O)NCCOCCOCC(=O)NCCOCCOCC(=O)N[C@H](CCC(N)=O)C(=O)N[C@@H](CCCNC(=N)N)C(=O)N1CCC[C@H]1C(=O)N(C)[C@@H](CCCNC(=N)N)C(=O)N[C@@H](CC1CCCCC1)C(=O)N[C@@H](CO)C(=O)N[C@@H](Cc1c[nH]cn1)C(=O)N[C@@H](CN)C(=O)NCC(=O)N1[C@H](C(=O)N[C@@H](CCCC)C(=O)N2CCC[C@H]2CC(=O)N[C@@H](CC(=O)O)Cc2ccccc2)C[C@@H]2CCCC[C@@H]21)C(=O)O) [SEQ ID NO: 624]
